The record followed here is patent US20200255519A1 (University of California, published 2020).

Assay [1] concerns the target biotinylated C-terminally truncated BCL-xL (residues 2-215), no ligand (DMSO vehicle) (human) (UniProt Q07817). Kind of assay: BLI (Octet), biotinylated BCL-xL on streptavidin sensor, Fab as analyte, no ABT-737.
The target in assay [2] is T1, BCL-xL/Bak-peptide complex: biotinylated BCL-xL (residues 2-215) in the presence of 5 µM Bak peptide (human, UniProt Q07817 2-215, biotin on the N-terminal AviTag).
T1 construct: Bak peptide bought from Anaspec (AS-61616); not shown: N-terminal tags (pMCSG7 vector tag used for Ni-NTA, AviTag, TEV cut site)
Kind of assay: biolayer interferometry, immobilized BCL-xL, 100 nM Fab with 5 µM Bak peptide. In general terms: In BLI a coated tip is dipped into the sample, and binding shifts an interference pattern.

For assay [3], the target named is T2, BCL-xL/ABT-737 complex: biotinylated BCL-xL (residues 2-215) in the presence of 1 µM ABT-737 (human, UniProt Q07817 2-215, biotin on the N-terminal AviTag; small molecule ABT-737 bound non-covalently).
T2 construct: Same protein as m1; not shown: N-terminal tags (pMCSG7 vector tag used for Ni-NTA, AviTag, TEV cut site)
Kind of assay: ELISA, biotinylated BCL-xL captured on NeutrAvidin, Fab titrated with 1 µM ABT-737, anti-Fab-HRP detection.

For assay [4], the target named is T2, BCL-xL/ABT-737 complex: biotinylated …. Kind of assay: ELISA, biotinylated BCL-xL captured on NeutrAvidin, Fab titrated with 1 µM ABT-737, anti-Fab-HRP detection [continued]. In general terms: In an ELISA, binding on a coated surface is turned into a signal by an enzyme label.
In assay [5] the target is T3, biotinylated C-terminally truncated BCL-xL (residues 2-215), no ligand (DMSO vehicle) (human, UniProt Q07817 2-215, biotin on the N-terminal AviTag).
T3 construct: also called apo BCL-xL; not shown: N-terminal tags (pMCSG7 vector tag used for Ni-NTA, AviTag, TEV cut site)
Description: ELISA, biotinylated BCL-xL captured on NeutrAvidin, Fab titrated with 0.05% DMSO (no ABT-737), anti-Fab-HRP detection [continued].

T2 sequence (Q07817 2-215, one chain of several): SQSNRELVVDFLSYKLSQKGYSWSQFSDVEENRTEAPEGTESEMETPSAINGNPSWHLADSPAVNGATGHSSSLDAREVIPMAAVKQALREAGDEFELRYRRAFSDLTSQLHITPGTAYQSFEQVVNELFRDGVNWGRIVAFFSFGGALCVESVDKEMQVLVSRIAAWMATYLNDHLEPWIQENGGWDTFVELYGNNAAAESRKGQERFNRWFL
T1 sequence (Q07817 2-215, one chain of several): as above
T3 sequence (Q07817 2-215): as the sequence (Q07817 2-215, one chain of several) above
Sequence of biotinylated C-terminally truncated BCL-xL (residues 2-215), no ligand (DMSO vehicle) (human) (Q07817 2-215): as the sequence (Q07817 2-215, one chain of several) above

B1: Fab AZ3 (Fab)
heavy: EISEVQLVESGGGLVQPGGSLRLSCAASGFNIYYSYMHWVRQAPGKGLEWVASISPYSSYTSYADSVKGRFTISADTSKNTAYLQMNSLRAEDTAVYYCARYGYSYYYYGALDYWGQGTLVTVSSASTKGPSVFPLAPSSKSTSGGTAALGCLVKDYFPEPVTVSWNSGALTSGVHTFPAVLQSSGLYSLSSVVTVPSSSLGTQTYICNVNHKPSNTKVDKKVEPKSCDKTHTGGSHHHHHH
light: SDIQMTQSPSSLSASVGDRVTITCRASQSVSSAVAWYQQKPGKAPKLLIYSASSLYSGVPSRFSGSRSGTDFTLTISSLQPEDFATYYCQQGWSGPWLITFGQGTKVEIKRTVAAPSVFIFPPSDSQLKSGTASVVCLLNNFYPREAKVQWKVDNALQSGNSQESVTEQDSKDSTYSLSSTLTLSKADYEKHKVYACEVTHQGLSSPVTKSFNRGECGGSDYKDDDDK
notes: Purified Fab; graft limits inferred
Broadly, the Kd is the concentration at which binding is half-saturated. As a reminder, the EC50 (read off the curve) is the concentration at which the effect is half-maximal. In the case of B1, the Kd in assay [1] is over 5000 nM. For the same molecule, in assay [2], the binding result is “no binding (tested: 100 nM)”. The “EC50 (read off the curve)” value in assay [3] is about 7 nM.

B2: Fab AZ6 (Fab)
heavy: EISEVQLVESGGGLVQPGGSLRLSCAASGFNLSYSYIHWVRQAPGKGLEWVASIYSSSGSTYYADSVKGRFTISADTSKNTAYLQMNSLRAEDTAVYYCARGSHAHGWAWFWYGMDYWGQGTLVTVSSASTKGPSVFPLAPSSKSTSGGTAALGCLVKDYFPEPVTVSWNSGALTSGVHTFPAVLQSSGLYSLSSVVTVPSSSLGTQTYICNVNHKPSNTKVDKKVEPKSCDKTHTGGSHHHHHH
light: SDIQMTQSPSSLSASVGDRVTITCRASQSVSSAVAWYQQKPGKAPKLLIYSASSLYSGVPSRFSGSRSGTDFTLTISSLQPEDFATYYCQQSSYSLITFGQGTKVEIKRTVAAPSVFIFPPSDSQLKSGTASVVCLLNNFYPREAKVQWKVDNALQSGNSQESVTEQDSKDSTYSLSSTLTLSKADYEKHKVYACEVTHQGLSSPVTKSFNRGECGGSDYKDDDDK
notes: as for B1
With B2, the binding result in assay [4] and in assay [5] was “binds” throughout.

B3: Fab AZ7 (Fab)
heavy: EISEVQLVESGGGLVQPGGSLRLSCAASGFNLSSYSMHWVRQAPGKGLEWVASIYSYYGSTSYADSVKGRFTISADTSKNTAYLQMNSLRAEDTAVYYCARYSPWVYYPYYGWYSGMDYWGQGTLVTVSSASTKGPSVFPLAPSSKSTSGGTAALGCLVKDYFPEPVTVSWNSGALTSGVHTFPAVLQSSGLYSLSSVVTVPSSSLGTQTYICNVNHKPSNTKVDKKVEPKSCDKTHTGGSHHHHHH
light: SDIQMTQSPSSLSASVGDRVTITCRASQSVSSAVAWYQQKPGKAPKLLIYSASSLYSGVPSRFSGSRSGTDFTLTISSLQPEDFATYYCQQSSYSLITFGQGTKVEIKRTVAAPSVFIFPPSDSQLKSGTASVVCLLNNFYPREAKVQWKVDNALQSGNSQESVTEQDSKDSTYSLSSTLTLSKADYEKHKVYACEVTHQGLSSPVTKSFNRGECGGSDYKDDDDK
notes: as for B1
Regarding B3, the binding result in assay [4] and in assay [5] was “binds” in each case.

B4: Fab AZ5 (Fab)
heavy: EISEVQLVESGGGLVQPGGSLRLSCAASGFNLYYYYIHWVRQAPGKGLEWVASIYPSYGSTYYADSVKGRFTISADTSKNTAYLQMNSLRAEDTAVYYCARASVWFGWYVPSAMDYWGQGTLVTVSSASTKGPSVFPLAPSSKSTSGGTAALGCLVKDYFPEPVTVSWNSGALTSGVHTFPAVLQSSGLYSLSSVVTVPSSSLGTQTYICNVNHKPSNTKVDKKVEPKSCDKTHTGGSHHHHHH
light: SDIQMTQSPSSLSASVGDRVTITCRASQSVSSAVAWYQQKPGKAPKLLIYSASSLYSGVPSRFSGSRSGTDFTLTISSLQPEDFATYYCQQWPGWYPITFGQGTKVEIKRTVAAPSVFIFPPSDSQLKSGTASVVCLLNNFYPREAKVQWKVDNALQSGNSQESVTEQDSKDSTYSLSSTLTLSKADYEKHKVYACEVTHQGLSSPVTKSFNRGECGGSDYKDDDDK
notes: as for B1
With B4, the binding result in assay [4] and in assay [5] was “binds” throughout.

B5: Fab AZ1 (Fab)
heavy: EISEVQLVESGGGLVQPGGSLRLSCAASGFNLSYSSMHWVRQAPGKGLEWVASISPYSSYTSYADSVKGRFTISADTSKNTAYLQMNSLRAEDTAVYYCARGWVGMDYWGQGTLVTVSSASTKGPSVFPLAPSSKSTSGGTAALGCLVKDYFPEPVTVSWNSGALTSGVHTFPAVLQSSGLYSLSSVVTVPSSSLGTQTYICNVNHKPSNTKVDKKVEPKSCDKTHTGGSHHHHHH
light: SDIQMTQSPSSLSASVGDRVTITCRASQSVSSAVAWYQQKPGKAPKLLIYSASSLYSGVPSRFSGSRSGTDFTLTISSLQPEDFATYYCQQYYWGFPSLFTFGQGTKVEIKRTVAAPSVFIFPPSDSQLKSGTASVVCLLNNFYPREAKVQWKVDNALQSGNSQESVTEQDSKDSTYSLSSTLTLSKADYEKHKVYACEVTHQGLSSPVTKSFNRGECGGSDYKDDDDK
notes: Purified Fab from E. coli; The scaffold tags are kept
Molecule B5 had a Kd in assay [1] of over 5000 nM. The binding result in assay [2] is reported as “no binding (tested: 100 nM)”.

B6: Fab AZ2 (Fab)
heavy: EISEVQLVESGGGLVQPGGSLRLSCAASGFNIYSYYMHWVRQAPGKGLEWVAYISPYYSYTSYADSVKGRFTISADTSKNTAYLQMNSLRAEDTAVYYCARGYPWYGMDYWGQGTLVTVSSASTKGPSVFPLAPSSKSTSGGTAALGCLVKDYFPEPVTVSWNSGALTSGVHTFPAVLQSSGLYSLSSVVTVPSSSLGTQTYICNVNHKPSNTKVDKKVEPKSCDKTHTGGSHHHHHH
light: SDIQMTQSPSSLSASVGDRVTITCRASQSVSSAVAWYQQKPGKAPKLLIYSASSLYSGVPSRFSGSRSGTDFTLTISSLQPEDFATYYCQQVSWAYPYLITFGQGTKVEIKRTVAAPSVFIFPPSDSQLKSGTASVVCLLNNFYPREAKVQWKVDNALQSGNSQESVTEQDSKDSTYSLSSTLTLSKADYEKHKVYACEVTHQGLSSPVTKSFNRGECGGSDYKDDDDK
notes: as for B1
In assay [1], B6 registered a Kd of over 5000 nM. Further, the binding result in assay [2] is “no binding (tested: 100 nM)”. The “EC50 (read off the curve)” value in assay [3] is about 2 nM.
